# Test results taken from the supplement of paper PMC9170038.
# Tested on: MS2 coat protein
# Experiment: apparent KD of MS2 coat protein; designed switch direction (-1 OFF switch, 1 ON switch): 1; higher = weaker reporter binding
# In short: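 On Illumina chips, designed RNA switches with common flanks were made by stalled E. coli RNA polymerase. Titrations with SNAP-549-labelled MS2 coat protein, doubling from 0.7 or 1.5 nM to 3 µM, were done with no input, with 200 uM small-molecule ligand, or with an oligonucleotide input. Apparent KD is the median per design over clusters, from curve fits of normalised cluster fluorescence.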
# [1] = Eterna round: R95, input ligand: FMN 200 uM
# [2] = Eterna round: R95, input ligand: microRNA oligo, concentration not stated
# [3] = Eterna round: R95, input ligand: none
# [4] = input ligand: microRNA oligo, concentration not stated
sequence,measurement,setting,value
AGUCCAGCCUGAGCUGGACAAAGGCAUGUACAUGAGGAUCACCCAUGUCAUGUACAAGCUUUUUGCUCGUCUUAAUA [Zipper 49 - 1] (puzzle: Sensor for hsa-mir-208a),apparent KD of MS2 coat protein,[1],0.177 µM
same,apparent KD of MS2 coat protein,[2],0.015 µM
same,apparent KD of MS2 coat protein,[3],0.22 µM
"AAAAGACAUGAGGAUCACCCAUGUGAAAACGUAGGAGGAUAUGUCGUGAAAAAAGACUUGACAGAAGGCCUGUGUC [SS1 - 34] (Eterna round: R96, puzzle: Same State 1)",apparent KD of MS2 coat protein,[4],0.0889 µM
CAGUGCUGUCGAGAGGAUAUGCGGUGAUGGACAUGAGGAUCACCCAUGUUAGCGACAGCGUCACGGCAGAAGGCUCUACCCACUG [Soteed Omei mod 46] (puzzle: Same State 2),apparent KD of MS2 coat protein,[1],0.0117 µM
same,apparent KD of MS2 coat protein,[2],0.0153 µM
same,apparent KD of MS2 coat protein,[3],0.0182 µM
GAGUGAUGGGUUAGUAACUGCUAGGAAGGACAUGAGGAUCACCCAUGUGAGUAACGAGCUUGUGCUCGUCUUAUAAG [JR_SHM208A_Sub021] (puzzle: Sensor for hsa-mir-208a),apparent KD of MS2 coat protein,[1],0.167 µM
same,apparent KD of MS2 coat protein,[2],0.0894 µM
same,apparent KD of MS2 coat protein,[3],0.325 µM
"UGGCUCAGAGCAGGAUAUAUGCGAUCACAUGAGGAUCACCCAUGUCUCGAGCUUCGGCUCGAGGCAUAGAAGGGCUCUGAGCCA [SSNG2/4-B2] (Eterna round: R96, puzzle: Same State NG 2)",apparent KD of MS2 coat protein,input ligand: FMN 200 uM,0.0144 µM
same,apparent KD of MS2 coat protein,[4],0.0268 µM
same,apparent KD of MS2 coat protein,input ligand: none,0.0364 µM
GGAUAACAUGAGGAUCACCCAUGUCAACAAAGUCGAGGAUAUGGGCAAUUAUAAUUAGAACCAGAAGGCGAAUAGG [Mat - Same State 1 - Mod of UCT - D44] (puzzle: Same State 1),apparent KD of MS2 coat protein,[1],0.0559 µM
same,apparent KD of MS2 coat protein,[2],0.126 µM
same,apparent KD of MS2 coat protein,[3],0.191 µM
AGUCCAGCAUAAGCUGGACAAAAGCAUGUACAUGAGGAUCACCCAUGUUCAUGUACAAGCUUUUUGCAAGUCAAAAU [Mat - hsa-mir-208a - Mod of JL - 82] (puzzle: Sensor for hsa-mir-208a),apparent KD of MS2 coat protein,[1],0.374 µM
same,apparent KD of MS2 coat protein,[2],0.018 µM
same,apparent KD of MS2 coat protein,[3],0.734 µM
"UUGCGGAAUUAAGGAUAUUGAGUACAUAUGUUUAACAUGAGGAUCACCCAUGUGGGUUGCGGUAUCGAGAAGGUAAAUUACUAC [salish99_SSNG2_r04_802] (Eterna round: R96, puzzle: Same State NG 2)",apparent KD of MS2 coat protein,input ligand: FMN 200 uM,0.13 µM
same,apparent KD of MS2 coat protein,[4],0.0888 µM
same,apparent KD of MS2 coat protein,input ligand: none,0.105 µM
UCUUGGUUUUUGCUCGUUUUUUGUGUUGAACAUGAGGAUCACCCAUGUAUUGUACGGUCCGAUUUAAUAAUGGUCCG [JMF 22] (puzzle: Sensor for hsa-mir-208a),apparent KD of MS2 coat protein,[1],0.0235 µM
same,apparent KD of MS2 coat protein,[2],0.0144 µM
same,apparent KD of MS2 coat protein,[3],0.0255 µM
"GGACGUCACUCAAACAAUUAAACAUGAGGAUCACCCAUGUCACAGGAUAUGGAUCCUAAUUGGAUCCAGAAGGGUGAGACGUCC [Fiskers NG3ss - 41] (Eterna round: R96, puzzle: Same State NG 3)",apparent KD of MS2 coat protein,[4],0.193 µM
"AACAAUCUAUCUGAGGAUAUCAUGAAAAAAACAUGAGGAUCACCCAUGUGCAGGAAAACUGCAUAUGAGAAGGCAGAUAGAUUGC [salish99_SS2_r3_004] (Eterna round: R96, puzzle: Same State 2)",apparent KD of MS2 coat protein,[4],0.504 µM
UAAACUUCUUUUAGUGUAAUGCAAGUGAUACAUGAGGAUCACCCAUGUUUUGGAUCGUGUUAUUUUGUUCGUCUUAA [JR_SHM208A_Sub077] (puzzle: Sensor for hsa-mir-208a),apparent KD of MS2 coat protein,[1],0.0332 µM
same,apparent KD of MS2 coat protein,[2],0.0303 µM
same,apparent KD of MS2 coat protein,[3],0.0429 µM
CUGCUACAUGAGGAUCACCCAUGUUGGAGUGAUGCAGGAUAUGUGUGACCAGAAGAUGAAACAGAAGGGCAAAGAA [JR_SS!_Sub004] (puzzle: Same State 1),apparent KD of MS2 coat protein,[1],0.0962 µM
same,apparent KD of MS2 coat protein,[2],0.0757 µM
same,apparent KD of MS2 coat protein,[3],0.101 µM
UACAAUCUAUCUGAGGAUAUCAUGAAUUACACAUGAGGAUCACCCAUGUGCAGGAAAACUGCAUAUGAGAAGGCAGAUAGAUUGU [salish99_ss2_r3_065] (puzzle: Same State 2),apparent KD of MS2 coat protein,[1],0.081 µM
same,apparent KD of MS2 coat protein,[2],1.06 µM
same,apparent KD of MS2 coat protein,[3],1.97 µM
"GGAGCCGACACUGAGGAUAUUCAUAUUAAAACAUGAGGAUCACCCAUGUAGGCCAGAAGGCCUUGGGAGAAGGCAGGCCGGCUCG [Inxebi] (Eterna round: R96, puzzle: Same State 2)",apparent KD of MS2 coat protein,input ligand: FMN 200 uM,0.0219 µM
same,apparent KD of MS2 coat protein,[4],0.166 µM
same,apparent KD of MS2 coat protein,input ligand: none,0.287 µM
"UAGGAACAUGAGGAUCACCCAUGUACCUCAUAUGGAGAAACACAGGAUAUGCUGAGGGAAACACAGCAGAAGGGUGAAGAGAGG [Default title] (Eterna round: R96, puzzle: Same State NG 3)",apparent KD of MS2 coat protein,input ligand: FMN 200 uM,0.0227 µM
same,apparent KD of MS2 coat protein,[4],0.0271 µM
same,apparent KD of MS2 coat protein,input ligand: none,0.0328 µM
"UGGCUCAGACUAGGAUAUGAUCAUGGCGCUUCGGCGCAUACAUGAGGAUCACCCAUGUAAAGUGAUCAGAAGGAGUCUGAGCCA [SSNG2/7-C2] (Eterna round: R96, puzzle: Same State NG 2)",apparent KD of MS2 coat protein,input ligand: FMN 200 uM,0.0145 µM
same,apparent KD of MS2 coat protein,[4],0.0119 µM
same,apparent KD of MS2 coat protein,input ligand: none,0.0158 µM
"AAAGAAACUACAGGAUAUGCGUGGGAAAGAUAGGCAGAAGGGUGGAUAAUAAAUUCCAGCACAUGAGGAUCACCCAUGUACUGG [Ince] (Eterna round: R96, puzzle: Same State NG 1)",apparent KD of MS2 coat protein,input ligand: FMN 200 uM,0.017 µM
same,apparent KD of MS2 coat protein,[4],0.0156 µM
same,apparent KD of MS2 coat protein,input ligand: none,0.0227 µM
UCUUGGUUUUUGCUCGUUUUUUGUGUUGAACAUGAGGAUCACCCAUGUAUUGUACGGUCCGGUUUGGUAGUGGUCCG [JMF 16] (puzzle: Sensor for hsa-mir-208a),apparent KD of MS2 coat protein,[1],0.041 µM
same,apparent KD of MS2 coat protein,[2],0.0294 µM
same,apparent KD of MS2 coat protein,[3],0.0536 µM
"AGUAGUGUAACAUGAGGAUCACCCAUGUAAGUAGAUGUAACCUAGGAUAUGGAUGAUAUGUUAGUCCAGAAGGAGGAUUGUUUA [JR_SSNG3_Sub038] (Eterna round: R96, puzzle: Same State NG 3)",apparent KD of MS2 coat protein,input ligand: FMN 200 uM,0.0206 µM
same,apparent KD of MS2 coat protein,[4],0.0367 µM
same,apparent KD of MS2 coat protein,input ligand: none,0.0348 µM
"UACAAUCUAUCUGAGGAUAUCAUGAAAAAAACAUGAGGAUCACCCAUGUGCAGGAAAACUGCAUAUGAGAAGGCAGAUAGAUUGC [salish99_SS2_r3_008] (Eterna round: R96, puzzle: Same State 2)",apparent KD of MS2 coat protein,[4],0.458 µM
"AUAGUGUACGCAGGAUAUCGAUGAGGAACAUGAGGAUCACCCAUGUUGUGAGGAUCACCCAUGUAUGAGAAGGGCGACCCAUGU [Same State NG2 S1] (Eterna round: R96, puzzle: Same State NG 2)",apparent KD of MS2 coat protein,input ligand: FMN 200 uM,0.148 µM
same,apparent KD of MS2 coat protein,[4],0.046 µM
same,apparent KD of MS2 coat protein,input ligand: none,0.0577 µM
"GCUAGUAUAAUUGUCAACAUGAGGAUCACCCAUGUAUGUUGGCAGGAUAUCGUUUGCAAAGCAAACGAGAAGGGCUAAACUAGC [Mat - Same State NG 3 - JL Mod - D11] (Eterna round: R96, puzzle: Same State NG 3)",apparent KD of MS2 coat protein,input ligand: FMN 200 uM,0.0613 µM
same,apparent KD of MS2 coat protein,[4],0.106 µM
same,apparent KD of MS2 coat protein,input ligand: none,0.171 µM
GGAGGACAUGAGGAUCACCCAUGUAGAUGGGCGCUAGGAUAUGCGAGAGGGUAGAGAGAAGCAGAAGGAGUGGAAA [JR_SS1_Sub040] (puzzle: Same State 1),apparent KD of MS2 coat protein,[1],0.149 µM
same,apparent KD of MS2 coat protein,[2],0.197 µM
same,apparent KD of MS2 coat protein,[3],0.382 µM
"GCUCGACGUAUUGUUUACAUGAGGAUCACCCAUGUAGGUGCGGAGGAUAUCUACGUGUUUCAUGUAGAGAAGGUCGUGUCGAGC [SameState NG3 #91] (Eterna round: R96, puzzle: Same State NG 3)",apparent KD of MS2 coat protein,input ligand: FMN 200 uM,0.0245 µM
same,apparent KD of MS2 coat protein,[4],0.0592 µM
same,apparent KD of MS2 coat protein,input ligand: none,0.106 µM
"UAGGAGAGUAGAACAUGAGGAUCACCCAUGUAACCUCAUGUAUAGGAUAUGUUAAGAGUAGUAGAACAGAAGGAUAAGUAGGAU [Default title] (Eterna round: R96, puzzle: Same State NG 3)",apparent KD of MS2 coat protein,input ligand: FMN 200 uM,0.694 µM
same,apparent KD of MS2 coat protein,[4],0.494 µM
same,apparent KD of MS2 coat protein,input ligand: none,0.655 µM
"AAGAUACAUGAGGAUCACCCAUGUCGAGAGAGACGAGGAUAUCUGAAUCGAUUAGAUUACGGAGAAGGCGUGAAAA [LROPPY Same State 1 - v07_deltaG=1.9] (Eterna round: R96, puzzle: Same State 1)",apparent KD of MS2 coat protein,input ligand: FMN 200 uM,0.0196 µM
same,apparent KD of MS2 coat protein,[4],0.0222 µM
same,apparent KD of MS2 coat protein,input ligand: none,0.0297 µM
"UUGUUUAACGUAGGAUAUCGACCUACAUGAGGAUCACCCAUGUCUUUGUAUAGUUUUUUUUGUUACGAGAAGGACGUUUUGUAU [JR_SSNG2_Sub068] (Eterna round: R96, puzzle: Same State NG 2)",apparent KD of MS2 coat protein,input ligand: FMN 200 uM,0.0686 µM
same,apparent KD of MS2 coat protein,[4],0.14 µM
same,apparent KD of MS2 coat protein,input ligand: none,0.17 µM
"AUUAUUAAUGCAGGAUAUGAUUAACAUGAGGAUCACCCAUGUGGUGUUGUGAGUAAGGAGAGUGAUCAGAAGGGCAUUUUUUAU [JMF's solution 15] (Eterna round: R96, puzzle: Same State NG 2)",apparent KD of MS2 coat protein,input ligand: FMN 200 uM,0.959 µM
same,apparent KD of MS2 coat protein,[4],0.387 µM
same,apparent KD of MS2 coat protein,input ligand: none,1.19 µM
"AUUUUUAAUGCAGGAUAUGAUUAACAUGAGGAUCACCCAUGUGGUGUUGUGAGUAAGGAGAGUGAUCAGAAGGGCAUCUUUUCA [SS-NG2-LRO02] (Eterna round: R96, puzzle: Same State NG 2)",apparent KD of MS2 coat protein,input ligand: FMN 200 uM,0.679 µM
same,apparent KD of MS2 coat protein,[4],0.216 µM
same,apparent KD of MS2 coat protein,input ligand: none,0.372 µM
UAGUACAUGCUUUUUGUCUGUCUUAGAUCACAUGAGGAUCACCCAUGUUUGGUGAAAGUUAUAUAGUUUAUGACUAU [JR_SHM208A_Sub059] (puzzle: Sensor for hsa-mir-208a),apparent KD of MS2 coat protein,[1],0.114 µM
same,apparent KD of MS2 coat protein,[2],0.0968 µM
same,apparent KD of MS2 coat protein,[3],0.162 µM
CCGCGCUGUCGAGAGGAUAUGCGGUGAUGGACAUGAGGAUCACCCAUGUUAGCGAUAGCAUUACUGUAGAAGGCUCUACAGCGGC [JL-ss2-3.10 ViennaUCT mod] (puzzle: Same State 2),apparent KD of MS2 coat protein,[1],0.0129 µM
same,apparent KD of MS2 coat protein,[2],0.0183 µM
same,apparent KD of MS2 coat protein,[3],0.0213 µM
